Measured values reported in patent US20180339059A1 (DINGFU BIOTARGET, published 2018).
Where two headings read alike, the source gives them in different places.

T1: hOX40-muFc (human; mouse, UniProt P43489 29-216)
T1 construct: range 1-216; Expressed in HEK293, purified on Protein A; also called recombinant human OX40; not shown: mouse IgG1-Fc (muFc) domain, residue 98 to residue 324 of P01868
T1 sequence (looked up): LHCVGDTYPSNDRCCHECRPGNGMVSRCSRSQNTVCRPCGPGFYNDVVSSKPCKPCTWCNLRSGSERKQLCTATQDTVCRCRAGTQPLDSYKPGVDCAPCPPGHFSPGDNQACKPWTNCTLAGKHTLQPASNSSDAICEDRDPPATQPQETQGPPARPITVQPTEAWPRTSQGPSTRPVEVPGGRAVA

T2: hCD27-EGFP on HEK293 cells (human, UniProt P26842 20-260)
T2 construct: pcDNA4-hCD27-EGFP transfected into HEK293; not shown: EGFP, C5MKY7
T2 sequence (looked up): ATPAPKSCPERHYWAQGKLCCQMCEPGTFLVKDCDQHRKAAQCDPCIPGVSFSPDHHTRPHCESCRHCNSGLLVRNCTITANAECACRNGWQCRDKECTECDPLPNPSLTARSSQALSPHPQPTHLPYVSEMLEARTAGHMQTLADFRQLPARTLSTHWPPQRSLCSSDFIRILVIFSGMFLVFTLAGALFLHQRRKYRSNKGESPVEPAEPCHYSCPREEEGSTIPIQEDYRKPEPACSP


Key:
hOX40-muFc [1] = biological target: T1, hOX40-muFc; experiment: ELISA, hOX40-muFc coated at 2 µg/ml, goat anti-human IgG-HRP; column C of the drawn 4-P fit table y=(A-D)/(1+(x/C)^B)+D; the axis prints no unit, ng/ml is from paragraph 210
Description: (§1) hOX40-muFc was diluted to 2 μg/ml with coating buffer (50 mM Na₂CO₃, NaHCO₃ pH 9.6), 100 μL/well, 4° C. overnight. After washing, blocking was performed using 3% BSA-PBS for 1 h at 37° C. The anti-hOX40 antibodies were diluted respectively from 2000 ng/ml and was diluted 2-fold in a total of 11 concentrations, with the diluent (1% BSA-PBS) as a control, and incubated at 37° C. for 2 h. Goat anti-human IgG-HRP conjugated was added and incubated for 1 h at 37° C. Soluble one-component TMB substrate developer solution is added, and the developing was performed in dark at room temperature for 5-10 min. 2N H₂SO₄ 50 μL/well was added to terminate the color development reaction. The OD of the obtained solution was determined at 450 nm-650 nm on MD SpectraMax Plus 384 microplate reader and SoftMaxPro v5.4 was used for processing data, making graphs and analysis. […] It can be seen from FIG. 5 and FIG. 6 that all the above variants of anti-OX40 21 # mAb can bind to OX40 and the affinity of the in vitro affinity-matured anti-OX40 21 # VHnew-L80 mAb and anti-OX40 21#H96-L80 mAb increased approximately two times compared to anti-OX40 21# mAb.

hOX40-muFc [2] = biological target: T1, hOX40-muFc; experiment: SPR, BIAcore X100; antibody captured by anti-human Fc on CM5 chip, OX40-muFc as analyte, 1:1 model
Description: The binding kinetics of anti-hOX40 antibody to recombinant human OX40 was measured by surface plasmon resonance (SRP) method using a BIAcore X100 instrument. Anti-human Fc antibody (no cross-identification against the mouse Fc) was conjugated on CM5 chip, the test antibody was diluted to 5 nM with running buffer and captured as a ligand by the anti-human Fc antibody on the CM5 chip. […] The injection time is 180 s, the dissociation time is 1800 s and the regeneration time is 60 s. The running buffer is HBS-EP+, and the regeneration buffer is 10 mM glycine-HCl (pH 2.0). The association rate (kₒₙ) and dissociation rate (koff) were calculated using a simple one-to-one Languir binding model (BIAcore Evaluation Software version 3.2). The equilibrium dissociation constant (kD) is calculated as the ratio koff/kₒₙ. It can be seen from Table 3 that the affinity of the affinity-matured anti-OX40 21 # H96-L80 mAb is increased approximately two times.

hOX40-muFc [3] = biological target: T1, hOX40-muFc; experiment: ELISA, hOX40-muFc coated at 2 µg/ml, goat anti-human IgG-HRP; column C of the drawn 4-P fit table y=(A-D)/(1+(x/C)^B)+D; the axis prints no unit, ng/ml is from paragraph 210; remark: listed apart in the source
Description: as §1

hOX40-muFc [4] = biological target: T1, hOX40-muFc; experiment: as above; remark: listed apart in the source
Description: as §1

[5] = biological target: T3, hCD137-EGFP on HEK293 cells (human, UniProt Q07011 24-255); experiment: flow cytometry on HEK293 cells expressing hCD137-EGFP, anti-hIg-PE
T3 construct: pcDNA4-hCD137-EGFP transfected into HEK293; not shown: EGFP, C5MKY7
Description: (§2) HEK293 cells expressing hOX40-EGFP, hCD137-EGFP and hCD27-EGFP obtained in Embodiment 1 were resuspended in 0.5% PBS-BSA Buffer and anti-hOX40 mAb protein was added and the mixture was incubated on ice for 20 min. After washing, secondary antibody anti-hlg-PE (eBioscience) was added, and the mixture was incubated on ice for 20 min. After washing, the cells were resuspended in 500 μl 0.5% PBS-BSA Buffer and detected by flow cytometry.

[6] = biological target: T2, hCD27-EGFP on HEK293 cells; experiment: flow cytometry on HEK293 cells expressing hCD27-EGFP, anti-hIg-PE
Description: as §2

T3 sequence (Q07011 24-255): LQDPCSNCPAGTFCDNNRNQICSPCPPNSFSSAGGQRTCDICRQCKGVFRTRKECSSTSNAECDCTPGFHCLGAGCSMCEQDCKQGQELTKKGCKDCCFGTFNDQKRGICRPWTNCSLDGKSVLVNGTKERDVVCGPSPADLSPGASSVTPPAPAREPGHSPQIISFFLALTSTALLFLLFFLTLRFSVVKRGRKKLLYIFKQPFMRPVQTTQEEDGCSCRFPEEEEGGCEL

EC50 (hOX40-muFc [1]) | Kd (hOX40-muFc [2]) | koff (hOX40-muFc [2]) | kon (hOX40-muFc [2]) | EC50 (hOX40-muFc [3]) | EC50 (hOX40-muFc [4]) | binding result [5] | binding result [6] | Binder
0.00949 µg/mL |  |  |  |  |  |  |  | O21 scFv (scFv, Purified as scFv fused with human IgG1-Fc; also called anti-OX40 21# scFv; not shown: human IgG1-Fc (hFc) domain, residues 104-330 of P01857) scFv: QVQLQQSGPGLVKPSQTLSLTCAISGDSVSSNSVSWDWIRQSPSRGLEWLGRTYYRSKWYNEYAVSVESRITINPDTSKNQFSLQLNSVTPEDTAIYFCVRNNYFFDLWGRGTLVTVSSGGGGSGGGGSGGGGSEIVLTQSPATLSLSPGERATLSCRASQSVSSYLAWYQQKPGQAPRLLIYDASDRATGIPARFSGSGSGTDFTLTISSLEPEDFAVYYCQLRSNWPPGYTFGQGTKVEIK
 |  |  |  | 0.046 µg/mL |  |  |  | anti-OX40 21#H96 mAb (antibody, IgG4, V domains shown, Formatted as IgG according to Embodiment 3 (IgG4); also called H96 heavy chain mutant; not shown: human immunoglobulin gamma4 (IgG4) constant region, P01861; human immunoglobulin kappa light chain constant region, P01834) VH: QVQLQQSGPGLVKPSQTLSLTCAISGDSVSSNSVSWDWIRQSPSRGLEWLGRTYYRSKWYNEYAVSVESRITINPDTSKNQFSLQLNSVTPEDTAIYFCVRNDYFFDLWGRGTLVTVSS VL: EIVLTQSPATLSLSPGERATLSCRASQSVSSYLAWYQQKPGQAPRLLIYDASDRATGIPARFSGSGSGTDFTLTISSLEPEDFAVYYCQLRSNWPPGYTFGQGTKVEIK

The remaining lines, values behind:

Binder | EC50 (hOX40-muFc [1]) | Kd (hOX40-muFc [2]) | koff (hOX40-muFc [2]) | kon (hOX40-muFc [2]) | EC50 (hOX40-muFc [3]) | EC50 (hOX40-muFc [4]) | binding result [5] | binding result [6]
O3 scFv (scFv, Purified as scFv fused with human IgG1-Fc, expressed in HEK293; also called anti-hOX40 scFv O3; not shown: human IgG1-Fc (hFc) domain, residues 104-330 of P01857) scFv: QVQLQQWGAGLLKPSETLSLTCGFNGEYFTDYFWTWVRQPPGEALEWLALIYWDDDERYSPSLKNRLIITKDISKNQVVLTMTHMEPADTGTYYCARWGGSLMNAFDVWGPGTMVTVSSGGGGSGGGGSGGGGSQSALIQPASVSGSPGQSITISCTGTSSDVGGYNYVSWYQRHPGKAPRLMIYDVTKRPSGVSNRFSGSKSGNTASLTISGLQAEDEADYYCSSYTSSSIAVFGGGTQLTVL | 0.309 µg/mL |  |  |  |  |  |  | 
O3 mAb (antibody, IgG4, V domains shown, IgG4, lambda; expressed in HEK293; also called 03 mAb; not shown: human immunoglobulin gamma4 (IgG4) constant region, P01861; human immunoglobulin lambda light chain constant region, A0M8Q6) VH: QVQLQQWGAGLLKPSETLSLTCGFNGEYFTDYFWTWVRQPPGEALEWLALIYWDDDERYSPSLKNRLIITKDISKNQVVLTMTHMEPADTGTYYCARWGGSLMNAFDVWGPGTMVTVSS VL: QSALIQPASVSGSPGQSITISCTGTSSDVGGYNYVSWYQRHPGKAPRLMIYDVTKRPSGVSNRFSGSKSGNTASLTISGLQAEDEADYYCSSYTSSSIAVFGGGTQLTVL | 0.0139 µg/mL | 1.38 nM | 0.000391 s⁻¹ | 284000 M⁻¹ s⁻¹ |  |  |  | 
O21 mAb (antibody, IgG4, V domains shown, also called 021 mAb; anti-OX40 21# mAb; not shown: human immunoglobulin gamma4 (IgG4) constant region, P01861; human immunoglobulin kappa light chain constant region, P01834) VH: QVQLQQSGPGLVKPSQTLSLTCAISGDSVSSNSVSWDWIRQSPSRGLEWLGRTYYRSKWYNEYAVSVESRITINPDTSKNQFSLQLNSVTPEDTAIYFCVRNNYFFDLWGRGTLVTVSS VL: EIVLTQSPATLSLSPGERATLSCRASQSVSSYLAWYQQKPGQAPRLLIYDASDRATGIPARFSGSGSGTDFTLTISSLEPEDFAVYYCQLRSNWPPGYTFGQGTKVEIK | 0.0139 µg/mL | 14.5 nM | 0.000608 s⁻¹ | 41800 M⁻¹ s⁻¹ | 0.0758 µg/mL | 0.0298 µg/mL | no binding | no binding
